These results are taken from US20190300590A1 (PROTAGONIST THERAPEUTICS, published 2019).

Test [1] concerns the target T1, IL23R_huFC (human, UniProt Q5VWK5 24-353).
T1 sequence (looked up): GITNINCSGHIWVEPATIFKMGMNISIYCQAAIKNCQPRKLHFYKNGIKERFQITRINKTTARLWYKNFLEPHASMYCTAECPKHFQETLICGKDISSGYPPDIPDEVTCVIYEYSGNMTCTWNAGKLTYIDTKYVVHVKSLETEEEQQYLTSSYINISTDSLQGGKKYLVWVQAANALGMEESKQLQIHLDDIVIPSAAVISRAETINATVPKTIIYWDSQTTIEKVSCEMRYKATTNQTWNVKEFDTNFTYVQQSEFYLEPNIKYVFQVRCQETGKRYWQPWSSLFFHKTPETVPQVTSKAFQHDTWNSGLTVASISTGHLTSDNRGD
Nature of the test: IL23-IL23R competitive ELISA. Background: ELISA stands for enzyme-linked immunosorbent assay.

For test [2], the target named is T2, IL23R_huFC (human, UniProt Q5VWK5 24-353).
T2 sequence (looked up): T1 sequence (looked up)
Nature of the test: human ELISA vs IL-23.

The target of another test is Rat IL-23R_huFC (rat). Nature of the test: rat ELISA vs IL-23.
Test [3] addresses T3, IL-23R on human cells (IL-23R-expressing DB cells; human NK cells) (human, UniProt Q5VWK5 24-629).
T3 sequence (looked up): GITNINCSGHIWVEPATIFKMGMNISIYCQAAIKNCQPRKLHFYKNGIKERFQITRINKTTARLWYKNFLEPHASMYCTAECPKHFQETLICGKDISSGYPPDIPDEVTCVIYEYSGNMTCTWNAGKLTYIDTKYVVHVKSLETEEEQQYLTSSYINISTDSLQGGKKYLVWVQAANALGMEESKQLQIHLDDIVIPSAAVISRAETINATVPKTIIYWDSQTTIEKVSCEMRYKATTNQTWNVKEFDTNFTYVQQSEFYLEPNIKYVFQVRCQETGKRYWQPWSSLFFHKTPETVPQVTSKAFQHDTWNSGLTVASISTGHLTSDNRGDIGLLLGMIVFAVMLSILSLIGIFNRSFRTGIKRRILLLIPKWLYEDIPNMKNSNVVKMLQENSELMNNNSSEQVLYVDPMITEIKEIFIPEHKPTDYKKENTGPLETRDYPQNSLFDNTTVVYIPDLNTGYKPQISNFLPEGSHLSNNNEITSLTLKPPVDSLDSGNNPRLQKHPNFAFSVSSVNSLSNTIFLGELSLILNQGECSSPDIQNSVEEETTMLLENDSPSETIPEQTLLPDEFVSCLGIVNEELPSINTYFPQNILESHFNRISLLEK
Nature of the test: cell-based or functional assay.

*1 amine or outer side, *2 acyl side, *3 side chain or, on linkers, in order; H or OH if unused. Bridges are numbered along the chain shown (N, C = ends). Primed or numbered codes have the meaning given here. [ ]: non-standard residue; d: D form. Phe(4-(2-acetylaminoethoxy)) = 4-(2-acetamidoethoxy)-phenylalanine, CC(=O)NCCOc1ccc(C[C@H](N[*:1])C(=O)[*:2])cc1; Phe(4-OMe)(3) = O-methyl-L-tyrosine (4-methoxy-L-phenylalanine), COc1ccc(C[C@H](N[*:1])C(=O)[*:2])cc1; 6‑amino‑1,4‑diazepane‑2,5‑dione = C-terminal 6-amino-1,4-diazepane-2,5-dione group; Phe(3,4-Cl2) = N[C@@H](Cc1ccc(Cl)c(Cl)c1)C(=O)O; 1Nal = N[C@@H](Cc1cccc2ccccc12)C(=O)O; 2Nal = N[C@@H](Cc1ccc2ccccc2c1)C(=O)O; AEF = NCCOc1ccc(C[C@H](N)C(=O)O)cc1; Chg = N[C@H](C(=O)O)C1CCCCC1; Suc = O=C(CCC(=O)[*:2])[*:1]; hLeu = CC(C)CC[C@H](N)C(=O)O; αMeK = C[C@](N)(CCCCN)C(=O)O; Dab = NCC[C@H](N)C(=O)O; Abu = CC[C@H](N)C(=O)O; Dap = NC[C@H](N)C(=O)O; Aib = CC(C)(N)C(=O)O; PEG1 = NCCOCCC(=O)O; Sar = CNCC(=O)O

What is called IC50 is the concentration that gives 50% inhibition. For the molecule Ac-DTPRCRTWECYWHTFG-NH2 (disulfide 5-10 (inferred)) [Ac-DTPRCRTWECYWHTFG-NH2], the IC50 with IL23R_huFC [1] is 500 to 1000 nM.
Molecule Ac-[Abu][Dap]TWQC[AEF][Phe(3,4-Cl2)][αMeK]K(Ac)NG-NH2 (thioether 1-6) [Ac-Cyclo-[[Abu]-DapTWQC]-[Phe[4-(2-aminoethoxy)]]-[Phe(3,4-Cl2)]-[α-MeLys]--[Lys(Ac)]-NG-NH2] yielded an IC50 in the test with IL23R_huFC [2] of 25 to 100 nM.
In turn, Ac-CADWVCYWHFHQLRDA-NH2 (disulfide 1-6 (inferred)) [Ac-CADWVCYWHFHQLRDA-NH2] gave an IC50 with IL23R_huFC [1] of 500 to 1000 nM.
In the case of Ac-[Abu]QTWQC[AEF][2Nal][αMeK]K(Ac)NG-NH2 (thioether 1-6) [Ac-Cyclo-[[Abu]-QTWQC]-[Phe[4-(2-aminoethoxy)]]-[2-Nal]-[α-MeLys]-[Lys(Ac)]-NG-NH2], in the test with Rat IL-23R_huFC, the IC50 was < 10 nM.
As to Ac-[Abu]QTWQC[AEF]W[αMeK]K(Ac)-{6‑amino‑1,4‑diazepane‑2,5‑dione-NH2} (thioether 1-6), in the test with IL23R_huFC [2], the IC50 fell in the range of 25 to 100 nM. The “pStat3 HTRF IC50” value in test [3] was < 10 nM.
Regarding Ac-CADWVCYWHRSTGGQH-NH2 (disulfide 1-6 (inferred)) [Ac-CADWVCYWHRSTGGQH-NH2], the IC50 with IL23R_huFC [1] fell in the range of 500 to 1000 nM.
Molecule Ac-TQFDCRTWECYWHTFG-NH2 (disulfide 5-10 (inferred)) [Ac-TQFDCRTWECYWHTFG-NH2] came in with an IC50 with IL23R_huFC [1] of 500 to 1000 nM.
Take Ac-[Abu]QTWQCYW[hLeu]ENG-NH2 (thioether 1-6) [Ac-Cyclo-[[Abu]-QTWQC]-YW-[hLeu]-ENG-NH2]: the IC50 in the test with IL23R_huFC [2] fell in the range of 25 to 100 nM.
Regarding Ac-[Abu]QTWQC[AEF][2Nal][Aib]E[Dab](Ac)G-NH2 (thioether 1-6) [Ac-Cyclo-[[Abu]-QTWQC]-[Phe[4-(2-aminoethoxy)]]-[2-Nal]-[Aib]-E-[Dab(Ac)]-G-NH2], the “pStat3 HTRF IC50” value in test [3] is < 10 nM. The IC50 with Rat IL-23R_huFC is < 10 nM.
In the case of CADWVCYXHTFG ([1-Nal]; -NH2; disulfide) [Hy-CADWVCY-[1-Nal]-HTFG-NH2], the IC50 with IL23R_huFC [1] lay within 500 to 1000 nM.
For Ac-[Abu]QTWQC[Phe(4-(2-acetylaminoethoxy))][2Nal][αMeK](Ac)ENG-NH2 (thioether 1-6) [Ac-Cyclo-[[Abu]-QTWQC]-[Phe[4-(2-(acetyl-aminoethoxy)]]-[2-Nal]-[α-MeLys(Ac)]-ENG-NH2], the “pStat3 HTRF IC50” value in test [3] is < 10 nM. Further, the IC50 with Rat IL-23R_huFC was < 10 nM.
With Ac-[Abu]QTWQC[AEF][2Nal][αMeK]ENG-NH2 (thioether 1-6) [Ac-Cyclo-[[Abu]-QTWQC]-[Phe[4-(2-aminoethoxy)]]-[2-Nal]-[α-MeLys]-ENG-NH2], the “pStat3 HTRF IC50” value in test [3] is < 10 nM. In addition, in the test with Rat IL-23R_huFC, the IC50 was < 10 nM.
H-CADWVCYWHTFG-NH2 (disulfide 1-6 (inferred)) [Hy-CADWVCYWHTFG-NH2] returned an IC50 with IL23R_huFC [1] of 500 to 1000 nM.
Ac-[Abu]QTWQC[Phe(4-OMe)(3)][2Nal][αMeK]K(Ac)NGGE-NH2 (thioether 1-6) [Ac-Cyclo-[[Abu]-QTWQC]-[Phe(4-OMe)]-[2-Nal][α-MeLys]-[Lys(Ac)]-NGGE-NH2]: the IC50 with IL23R_huFC [2] is 25 to 100 nM.
Turning to Suc-[Abu]QTWQC[AEF][2Nal][αMeK]K(Ac)NG-NH2 (thioether 1-6) [Succicinyl-Cyclo-[[Abu]-QTWQC]-[Phe[4-(2-aminoethoxy)]]-[2-Nal]-[α-MeLys]-[Lys(Ac)]-NG-NH2], in the test with Rat IL-23R_huFC, the IC50 is < 10 nM.

B1: Ac-[(D)Lys]-CRDWQCY-[1-Nal]-HTH-[ Sarc]-[AEP]-(D)Arg]-NH2 (peptide)
peptide: Ac-[dK]CRDWQCY[1Nal]HTH[Sar][PEG1][dR]-NH2
modifications: disulfide 2-7
SMILES: CC(=O)N[C@H](CCCCN)C(=O)N[C@H]1CSSC[C@@H](C(=O)N[C@@H](Cc2ccc(O)cc2)C(=O)N[C@@H](Cc2cccc3ccccc23)C(=O)N[C@@H](Cc2c[nH]cn2)C(=O)N[C@H](C(=O)N[C@@H](Cc2c[nH]cn2)C(=O)N(C)CC(=O)NCCOCCC(=O)N[C@H](CCCNC(=N)N)C(N)=O)[C@@H](C)O)NC(=O)[C@H](CCC(N)=O)NC(=O)[C@H](Cc2c[nH]c3ccccc23)NC(=O)[C@H](CC(=O)O)NC(=O)[C@H](CCCNC(=N)N)NC1=O
With B1, in the test with IL23R_huFC [1], the IC50 fell in the range of 500 to 1000 nM.
Still for that read-out and setting: to Ac-GDHKCSSWECYWHTFG-NH2 (disulfide 5-10 (inferred)) [Ac-GDHKCSSWECYWHTFG-NH2] belongs 500 to 1000 nM.
Ac-[Abu]QTWQC[Phe(4-OMe)(3)][2Nal][Chg]K(Ac)NG-NH2 (thioether 1-6) [Ac-Cyclo-[[Abu]-QTWQC]-[Phe(4-OMe)]-[Nal]-[Chg]-[Lys(Ac)]-NG-NH2] had an IC50 with IL23R_huFC [2] of 25 to 100 nM.
